B1: HDV Ribozyme (parent)
chain: GGCCGGCAUGGUCCCAGCCUCCUCGCUGGCGCCGGCUGGGCAACAUUCCGAGGGGACCGUCCCCUCGGUAAUGGCGAAUGGGACCCA

Variants of: B1
Test: self-cleavage, relative activity (ratio to wild type); higher = more cleavage; co-transcriptional

Variant	self-cleavage
C26U G50A	1.07
U27C G31C	0
U27A C64U	0.855
U27G U60A	0.914
U27G U60C	0.804
C26U G76U	0.963
C26U G76A	1.04
U27G U72G	0.978
C26U G81C	0.748
U27G A87U	0.763
U27G A87G	0.774
U27A G38U	0.0426
U27A G38A	0
U27A G39C	0.0504
U27A G39A	0.356
U27A C66G	0.755
U27A C66A	0.886
U27G A45C	0.26
U27G A45U	0.831
U27C U65G	0.831
U27C U65A	0.957
C26U C86U	0.831
C26U C86A	0.99
C26U C86G	1.14

Variant	self-cleavage
U27G C85U	0.807
U27G C85A	0.831
U27G C85G	1.29
U27G G28A	0.499
U27G G28U	0.612
U27G G28C	0.554
U27C A83G	0.727
U27C A83C	0.554
U27C A83U	0.465
U27A C75U	0.0519
C26U C58U	1.16
U27G A70G	1.14
U27A G68U	0.875
U27A G68A	0.944
U27G G80C	0.213
U27G G80U	0.224
U27A C41A	0.895
U27A U72G	0.739
U27A U72A	0.266
U27G C58A	0.516
U27G C58G	0.95
C26U G82A	0.769
C26U G82U	0.769
U27C G80C	0.101

Variant	self-cleavage
C26U U60C	0.95
U27A C57U	1.01
U27A C57G	0.8
U27A G53U	0.798
U27A G53A	0.646
U27G C63U	1.11
U27G C63A	1.07
C26U C84U	1.05
C26U C84A	1.15
U27C A78U	0.297
U27C A78G	0.227
U27C U47C	0.511
U27C U47G	0.782
U27C U47A	0.519
C26U G35U	0.641
C26U G35C	0.288
U27A G40A	0.886
U27A G40U	0.793
C26U G59U	0.881
C26U G59C	0.935
U27G U47G	1.27
U27G U47A	0.697
C26U U47A	1.16
U27A C61A	0.906

Variant	self-cleavage
C26U U65A	0.769
U27C A51G	0.914
U27C A51C	0.858
U27C G82C	0.356
U27C G82A	0.396
U27G C36U	0.322
U27G C36A	0.0639
U27C A42U	0.475
U27C G34A	0.289
U27C C75U	0.161
C26U G74A	0.717
C26U G74C	0.519
U27G G68A	0.858
U27G G68U	0.858
U27C A45C	0.237
C26U C75A	0.154
U27A G55U	1.14
C26U G67U	0.686
U27C U46C	0.138
U27C U46G	0.332
U27C C44A	0.447
U27C C44G	0.277
C26U C64G	1.1
C26U C64A	0.979

Variant	self-cleavage
U27C C86U	0.745
U27C C86A	0.875
U27G C32G	0
U27G C32U	0.831
U27G C32A	0.185
U27G A78C	0.499
U27G A78G	0.532
U27A C58A	0.997
U27A C58U	0.937
C26U U37A	0.462
C26U U72C	0.906
C26U U72A	0.731
U27C G28A	0.135
U27C G28U	0.0678
U27C C48G	0.831
U27C G52U	1.01
C26U G55A	1.05
C26U G55C	0.954
C26U G55U	0.929
U27G A43G	0.302
U27G A43C	0.166
U27A C32U	0.923
U27A C32G	0.0545
U27A C32A	0.0604

Variant	self-cleavage
U27C G53U	0.746
U27G C86U	1.15
U27G C86A	0.767
U27G C62U	1.02
U27G C62A	1.09
U27G C62G	1.14
U27A G59A	0.919
U27C U60G	0.875
U27C U60C	0.677
U27C C85A	0.978
U27C C85U	1.04
U27A G73C	0.0639
U27C G50C	0.858
U27A U69C	1.11
U27A U69G	1.02
U27A U69A	0.831
U27C C63G	0.639
U27C C63A	0.883
U27G C49G	0.665
U27G G40A	0.889
U27G G40U	0.293
U27G G40C	0.0639
U27G C30A	0.458
U27C C62G	0.615

Variant	self-cleavage
U27C C62U	0.851
U27C A70G	0.739
U27C A70U	0.72
U27G C44A	0.475
U27G C44U	0.688
U27G C64G	0.87
U27A G28C	0
U27A G28A	0.0811
U27C C41U	0.604
U27C C41A	0.192
U27C C41G	0.217
U27C G67A	0.886
U27C G67U	0.798
U27C G67C	0.997
U27C G54C	0.538
U27C G76A	0.869
U27C G76U	0.883
U27G G76A	0.98
U27G G76U	0.855
U27G G76C	1.14
U27C C57G	0.639
U27C C57U	0.707
U27C C49A	0.776
U27C C49G	0.962

Variant	self-cleavage
U27C A43C	0.172
U27A A51U	0.739
U27A A71G	1.07
U27A A71C	1.03
C26U G40A	0.885
C26U G40C	0.946
G28A A45U	0.128
U27A A77C	0
U27A A77U	0.332
U27G A83U	0.791
U27G A83G	0.755
C26U G39A	0.599
C26U G39C	0.475
C26U G39U	0.936
U27C C32A	0.0519
U27A U65A	0.95
U27C G68A	0.697
U27C G68C	0.511
U27G G67A	1.1
U27C G55A	0.533
U27C G55C	0.847
U27C G55U	0.426
U27A G52C	0.914
U27A G52A	0.844

Variant	self-cleavage
U27A U37C	0.578
U27A U37G	0.119
U27A U37A	0.138
U27G C33A	0.185
U27G C33U	0.935
U27A A70U	0.985
U27G A56U	0.692
U27A G34U	0.272
U27C C36U	0.404
U27C C30U	0.426
U27C C30G	0
U27C C30A	0.415
U27A A78U	0.256
U27G A42G	0.289
U27A A42U	0
U27A A42C	0.0831
U27A G35U	0.201
U27A G35A	0.369
U27A G35C	0.201
U27G G35A	0.295
U27G G35U	0.277
U27G G35C	0.0594
U27C U79C	0.101
U27C U79A	0.511

Variant	self-cleavage
U27C U79G	0.32
U27G C66A	0.532
U27G C66U	1.02
U27C C58A	0.458
U27C C58U	0.539
U27G U46A	0.332
U27G U46C	0.997
U27A G80C	0.469
U27A G76U	0.65
U27G U79C	0.308
U27C G59C	0.751
U27C G59A	0.742
U27C U69C	0.931
U27C C84A	0.923
U27C C84U	0.65
G28A A51G	0.0326
G28A A51C	0
C26U C61G	1.19
U27A U60C	1.21
U27C G40U	0.7
U27A C49A	0.831
U27A U47G	0.89
C26U G52C	0.9
U27G G38A	0.128

Variant	self-cleavage
C26U U69A	1.11
C26U U69C	1.12
U27A C48G	1.09
U27A C48A	0.831
U27A G50U	0.99
G28A A56G	0.135
U27A A87C	0.88
U27C G38U	0.131
U27C G38A	0.0978
U27A C63U	0.813
U27G A71C	0.7
U27C G81C	0.369
U27C G29U	0.145
C26U G28C	0.19
C26U G28U	0.277
U27G C57G	0.895
U27G C57A	1.22
U27G C57U	0.987
U27G G50A	0.923
U27A A56C	0.914
U27A A56U	0.923
U27G G74C	0.302
U27A A83C	0.739
U27G C75U	0.138

Variant	self-cleavage
U27G G59C	1.03
U27G G59U	1.03
U27G G59A	0.855
U27A U79C	0.201
U27G A77C	0.277
U27C G39U	0.467
U27C G39A	0.175
U27G G55U	1
U27G G54U	0.997
U27G G54A	0.578
U27C C33U	0.453
U27C C33G	0.237
U27A G54U	0.845
U27G G39A	0.196
U27A C36A	0
U27A C36U	0.538
U27A A43G	0.237
U27A U46C	0.733
U27A U46G	0.369
U27A G31C	0.378
U27A G31A	0.743
C26U G80C	0.554
C26U G29A	0.332
C26U G29C	0.0959

Variant	self-cleavage
U27G C48G	0.923
U27C C66A	0.59
U27C C66G	0.692
G28A A70G	0.032
U27A A45G	0.745
U27A A45U	0.458
U27A G82A	0.849
U27C C64U	0.895
U27G U65G	0.95
U27G U65A	1.03
U27G U65C	0.965
G28A A42G	0.369
U27G G81C	0.277
U27A C84A	0.831
U27A C84U	0.795
U27G G52C	1.02
U27G G31U	0.293
U27G G31C	0.344
U27A C86G	0.918
C26U G54A	0.774
C26U G54U	1.07
C26U C63A	0.969
C26U C63U	0.943
U27G G82A	0.534

Variant	self-cleavage
U27A C30A	0.525
U27A C30U	0.677
U27C A77C	0.192
C26U G73U	0.502
C26U U79C	0.671
C26U G34C	0.224
U27G U37C	0.762
C26U G53C	1.04
C26U G53A	1.16
C26U G53U	1.22
U27C U37A	0.0519
U27C G35C	0
C26U C66U	1.02
U27A G81U	0.502
U27A G29U	0
U27A G29C	0.158
U27C A87C	0.595
U27G G73A	0.396
U27G G73U	0.0723
U27C A71G	0.677
U27C A71U	0.639
U27C A71C	0.458
